Source: US20220177587A1, “METHODS AND USES OF VARIANT CD80 FUSION PROTEINS AND RELATED CONSTRUCTS” (Alpine Immune Sciences, Inc., priority 2018, published 2022)

Legend:
[1] = target: huPD-L1 (Homo sapiens, UniProt Q9NZQ7); assay: Flow binding to CHO cells stably expressing PD-L1; set-up: huCTLA4 and huPD-L1, full-length mammalian surface expression constructs were generated; expressed in transfected cells; host or cells: CHO cells, lentiviral transduction, sorted to >98% purity; settings: for PD-L1 MFI at 33.3 nM: CHO cells stably expressing PD-L1
Summary of the method: (§1)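 Fusion proteins bound to CHO cells stably expressing CTLA4 or PD-L1, or to Jurkat/IL2 reporter cells with endogenous CD28, for 45 min on ice after blocking in PBS/1% BSA. Detection with PE anti-human Fc by flow cytometry; PE MFI per cell type and binding EC50 determined.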

[2] = target: huCTLA4 (Homo sapiens, UniProt P16410); assay: Flow binding to CHO cells stably expressing CTLA4; set-up: huCTLA4 and huPD-L1, full-length mammalian surface expression constructs were generated; expressed in transfected cells; host or cells: CHO cells, lentiviral transduction, sorted to >98% purity; settings: for CTLA4 MFI at 33.3 nM: CHO cells stably expressing CTLA4
Summary of the method: as §1

[3] = target: CD28 (Homo sapiens, UniProt P10747); assay: Flow binding to Jurkat/IL2 reporter cells (CD28); set-up: host or cells: Jurkat cells expressing an IL-2-luciferase reporter
Experimental: Binding of selected immunomodulatory fusion proteins to cognate binding partners was assessed. […] Cells were sorted in a Bio-Rad S3 Cell Sorter (Bio-Rad Corp., USA) to >98% purity. Jurkat/IL2 reporter cells, which endogenously express CD28, were used to detect binding to CD28.
For staining and analysis by flow cytometry, 100,000 cells of appropriate transfected cells were plated in 96-well round bottom plates. Cells were spun down and resuspended in staining buffer (phosphate buffered saline (PBS), 1% bovine serum albumin (BSA), and 0.1% sodium azide) for 20 minutes to block non-specific binding. […] Primary staining was performed on ice for 45 minutes, before washing cells in staining buffer twice. Phycoerythrin (PE)-conjugated anti-human Fc (Jackson ImmunoResearch, USA) was diluted 1:150, added to cells and incubated another 30 minutes on ice. Cells were then washed twice with 150 μL/well stain buffer, fixed in 2% formaldehyde/PBS, and analyzed on Intellicyt flow cytometer (Intellicyt Corp., USA). PE Mean Fluorescence Intensity (MFI) was calculated for each cell type with FlowJo Version 10 software (FlowJo LLC, USA).
Binding assays were carried out to assess the specificity and affinity of multivalent proteins to cell-expressed CTLA-4, CD28, and PD-L1 counter structures.
The EC50 for binding also was determined.

[4] = Table E23, CD80 IgV-Fc (inert) at 33.3 nM
[5] = Table E23, MFI at 33.3 nM relative to CD80 WT IgV-Fc
[6] = Table E23, CD80 IgV-Fc (inert) at 33.3 nM, Jurkat (CD28)
[7] = Table E11, 33.3 nM, listed as WT CD80 ECD-Fc = 1.0
[8] = Table E19, Jurkats (CD28), 33.3 nM
[9] = Table E20, Jurkats (CD28), 33.3 nM

huCTLA4, sequence (P16410 36-223): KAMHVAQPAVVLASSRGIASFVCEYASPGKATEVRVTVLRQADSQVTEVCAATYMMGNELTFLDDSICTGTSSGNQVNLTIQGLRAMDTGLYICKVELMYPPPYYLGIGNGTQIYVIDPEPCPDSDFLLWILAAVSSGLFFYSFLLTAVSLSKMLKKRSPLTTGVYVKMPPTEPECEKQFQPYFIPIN
huPD-L1, sequence (Q9NZQ7 19-290): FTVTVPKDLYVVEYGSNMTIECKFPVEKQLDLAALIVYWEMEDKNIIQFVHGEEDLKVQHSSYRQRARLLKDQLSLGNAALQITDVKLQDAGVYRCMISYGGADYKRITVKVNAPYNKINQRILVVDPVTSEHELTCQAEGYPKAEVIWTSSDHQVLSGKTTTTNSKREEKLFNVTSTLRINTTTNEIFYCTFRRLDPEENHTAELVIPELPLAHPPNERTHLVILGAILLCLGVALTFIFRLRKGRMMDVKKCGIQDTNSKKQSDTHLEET

B1: H18I/A26P/E35D/M47V/V68M/A71G (protein, UniProt P33681 35-288, looked up, variant H18I A26P E35D M47V V68M A71G)
T-lymphocyte activation …: VIHVTKEVKEVATLSCGINVSVEELPQTRIYWQKDKKMVLTMMSGDVNIWPEYKNRTIFDITNNLSIMILGLRPSDEGTYECVVLKYEKDAFKREHLAEVTLSVKADFPTPSISDFEIPTSNIRRIICSTSGGFPEPHLSWLENGEELNAINTTVSQDPETELYAVSSKLDFNMTTNHSFMCLIKYGHLRVNQTFNWNTTKQEHFPDNLLPSWAITLISVNGIFVICCLTYCFAPRCRERRRNERLRRESVRPV
[1]; [4]
  PD-L1 MFI at 33.3 nM: 64919
[1]; [5]
  PD-L1 Fold change to WT CD80: 393.4
[1]; Table E23, ratio of MFI at 33.3 nM
  Ratio of PDL1:CD28: 25.2
[2]; [4]
  CTLA4 MFI at 33.3 nM: 21923
[2]; [5]
  CTLA4 Fold change to WT CD80: 15.8
[3]; [6]
  CD28 MFI at 33.3 nM: 2573
[3]; [5]
  CD28 Fold change to WT CD80: 25.2

B2: H18L/E35D/M47V/V68M/A71G/D90G (protein, UniProt P33681 35-288, looked up, variant H18L E35D M47V V68M A71G D90G)
T-lymphocyte activation …: VIHVTKEVKEVATLSCGLNVSVEELAQTRIYWQKDKKMVLTMMSGDVNIWPEYKNRTIFDITNNLSIMILGLRPSDEGTYECVVLKYEKGAFKREHLAEVTLSVKADFPTPSISDFEIPTSNIRRIICSTSGGFPEPHLSWLENGEELNAINTTVSQDPETELYAVSSKLDFNMTTNHSFMCLIKYGHLRVNQTFNWNTTKQEHFPDNLLPSWAITLISVNGIFVICCLTYCFAPRCRERRRNERLRRESVRPV
[1]; [4]
  PD-L1 MFI at 33.3 nM: 64761
[2]; [4]
  CTLA4 MFI at 33.3 nM: 20280
[3]; [6]
  CD28 MFI at 33.3 nM: 6349

B3: E35D/M47V/N48KN68M/L85M (protein)
chain: VIHVTKEVKEVATLSCGHNVSVEELAQTRIYWQKDKKMVLTMMSGDVKIWPEYKNRTIFDITNNLSIMILALRPSDEGTYECVVMKYEKDAFKREHLAEVTLSVKAD
[1]; [7]
  PD-L1 Fold change to WT CD80: 147.9
[1]; Table E11, 33.3 nM
  PD-L1 MFI at 33.3 nM: 7618
[1]; Table E11, MFI at 33.3 nM
  Ratio of PDL1:CD28: 31.1
[2]; [7]
  CTLA4 Fold change to WT CD80: 8.9
[2]; Table E11, 33.3 nM
  CTLA4 MFI at 33.3 nM: 15581
[3]; [7]
  CD28 Fold change to WT CD80: 7.8
[3]; Table E11, Jurkats (CD28), 33.3 nM
  CD28 MFI at 33.3 nM: 245

B4: E35D/M47L/V68M/L85Q (protein)
chain: VIHVTKEVKEVATLSCGHNVSVEELAQTRIYWQKDKKMVLTMMSGDLNIWPEYKNRTIFDITNNLSIMILALRPSDEGTYECVVQKYEKDAFKREHLAEVTLSVKAD
[1]; Table E19, 33.3 nM
  PD-L1 MFI at 33.3 nM: 15307
[2]; Table E19, 33.3 nM
  CTLA4 MFI at 33.3 nM: 28106
[3]; [8]
  CD28 MFI at 33.3 nM: 159

B5: N48K (protein)
chain: VIHVTKEVKEVATLSCGHNVSVEELAQTRIYWQKEKKMVLTMMSGDMKIWPEYKNRTIFDITNNLSIVILALRPSDEGTYECVVLKYEKDAFKREHLAEVTLSVKAD
[1]; Table E19, 33.3 nM
  PD-L1 MFI at 33.3 nM: 481
[2]; Table E19, 33.3 nM
  CTLA4 MFI at 33.3 nM: 4952
[3]; [8]
  CD28 MFI at 33.3 nM: 60.1

B6: H18Y/A26E/M47L/D90G (protein)
chain: VIHVTKEVKEVATLSCGYNVSVEELEQTRIYWQKEKKMVLTMMSGDLNIWPEYKNRTIFDITNNLSIVILALRPSDEGTYECVVLKYEKGAFKREHLAEVTLSVKAD
[1]; Table E20, 33.3 nM
  PD-L1 MFI at 33.3 nM: 8933
[2]; Table E20, 33.3 nM
  CTLA4 MFI at 33.3 nM: 23485
[3]; [9]
  CD28 MFI at 33.3 nM: 2858

B7: M47V/K89N (protein)
chain: VIHVTKEVKEVATLSCGHNVSVEELAQTRIYWQKEKKMVLTMMSGDVNIWPEYKNRTIFDITNNLSIVILALRPSDEGTYECVVLKYENDAFKREHLAEVTLSVKAD
[1]; Table E19, 33.3 nM
  PD-L1 MFI at 33.3 nM: 622
[2]; Table E19, 33.3 nM
  CTLA4 MFI at 33.3 nM: 32381
[3]; [8]
  CD28 MFI at 33.3 nM: 197

B8: N48K/V68M (protein)
chain: VIHVTKEVKEVATLSCGHNVSVEELAQTRIYWQKEKKMVLTMMSGDMKIWPEYKNRTIFDITNNLSIMILALRPSDEGTYECVVLKYEKDAFKREHLAEVTLSVKAD
[1]; Table E19, 33.3 nM
  PD-L1 MFI at 33.3 nM: 754
[2]; Table E19, 33.3 nM
  CTLA4 MFI at 33.3 nM: 2341
[3]; [8]
  CD28 MFI at 33.3 nM: 118

B9: M47V/N48K (protein)
chain: VIHVTKEVKEVATLSCGHNVSVEELAQTRIYWQKEKKMVLTMMSGDVKIWPEYKNRTIFDITNNLSIVILALRPSDEGTYECVVLKYEKDAFKREHLAEVTLSVKAD
[1]; Table E19, 33.3 nM
  PD-L1 MFI at 33.3 nM: 3083
[2]; Table E19, 33.3 nM
  CTLA4 MFI at 33.3 nM: 44640
[3]; [8]
  CD28 MFI at 33.3 nM: 413

B10: A26E/M47L/V68M/D90G (protein)
chain: VIHVTKEVKEVATLSCGHNVSVEELEQTRIYWQKEKKMVLTMMSGDLNIWPEYKNRTIFDITNNLSIMILALRPSDEGTYECVVLKYEKGAFKREHLAEVTLSVKAD
[1]; Table E20, 33.3 nM
  PD-L1 MFI at 33.3 nM: 10626
[2]; Table E20, 33.3 nM
  CTLA4 MFI at 33.3 nM: 21900
[3]; [9]
  CD28 MFI at 33.3 nM: 2583

B11: V68M (protein)
chain: VIHVTKEVKEVATLSCGHNVSVEELAQTRIYWQKEKKMVLTMMSGDMNIWPEYKNRTIFDITNNLSIMILALRPSDEGTYECVVLKYEKDAFKREHLAEVTLSVKAD
[1]; Table E19, 33.3 nM
  PD-L1 MFI at 33.3 nM: 118
[2]; Table E19, 33.3 nM
  CTLA4 MFI at 33.3 nM: 568
[3]; [8]
  CD28 MFI at 33.3 nM: 37.9

B12: V68M/L85Q (protein)
chain: VIHVTKEVKEVATLSCGHNVSVEELAQTRIYWQKEKKMVLTMMSGDMNIWPEYKNRTIFDITNNLSIMILALRPSDEGTYECVVQKYEKDAFKREHLAEVTLSVKAD
[1]; Table E19, 33.3 nM
  PD-L1 MFI at 33.3 nM: 347
[2]; Table E19, 33.3 nM
  CTLA4 MFI at 33.3 nM: 3288
[3]; [8]
  CD28 MFI at 33.3 nM: 91.7

B13: M47L/V68M/L85Q (protein)
chain: VIHVTKEVKEVATLSCGHNVSVEELAQTRIYWQKEKKMVLTMMSGDLNIWPEYKNRTIFDITNNLSIMILALRPSDEGTYECVVQKYEKDAFKREHLAEVTLSVKAD
[1]; Table E19, 33.3 nM
  PD-L1 MFI at 33.3 nM: 4039
[2]; Table E19, 33.3 nM
  CTLA4 MFI at 33.3 nM: 11134
[3]; [8]
  CD28 MFI at 33.3 nM: 60.9

B14: H18Y/A26E/E35D/V68M (protein)
chain: VIHVTKEVKEVATLSCGYNVSVEELEQTRIYWQKDKKMVLTMMSGDMNIWPEYKNRTIFDITNNLSIMILALRPSDEGTYECVVLKYEKDAFKREHLAEVTLSVKAD
[1]; Table E20, 33.3 nM
  PD-L1 MFI at 33.3 nM: 17904
[2]; Table E20, 33.3 nM
  CTLA4 MFI at 33.3 nM: 20929
[3]; [9]
  CD28 MFI at 33.3 nM: 372

B15: A26E/M47L/V68M/A71G (protein)
chain: VIHVTKEVKEVATLSCGHNVSVEELEQTRIYWQKEKKMVLTMMSGDLNIWPEYKNRTIFDITNNLSIMILGLRPSDEGTYECVVLKYEKDAFKREHLAEVTLSVKAD
[1]; Table E20, 33.3 nM
  PD-L1 MFI at 33.3 nM: 1667
[2]; Table E20, 33.3 nM
  CTLA4 MFI at 33.3 nM: 3227
[3]; [9]
  CD28 MFI at 33.3 nM: 98.7
